Measurements as given in article PMC3268394 (The Journal of Biological Chemistry, 2011).
One block for each binder: values may come before it.

What was measured:
[1] = molecular target: ubiquitin (UniProt P0CG48 1-76); experiment: pull-down
[2] = molecular target: T1, HDAC6 ZnF-UBP domain (1109–1215), His tag cleaved (UniProt Q9UBN7 1109-1215); experiment: crystal structure
T1 sequence: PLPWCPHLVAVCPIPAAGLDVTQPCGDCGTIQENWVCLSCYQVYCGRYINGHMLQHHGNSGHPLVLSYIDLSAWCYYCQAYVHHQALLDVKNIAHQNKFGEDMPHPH

binding result [1]: binds
B1: His-tagged UBP domain of USP5 (171–290) (domain or fragment)
chain: GEVRQVSKHAFSLKQLDNPARIPPCGWKCSKCDMRENLWLNLTDGSILCGRRYFDGSGGNNHAVEHYRETGYPLAVKLGTITPDGADVYSYDEDDMVLDPSLAEHLSHFGIDMLKMQKTD

binding result [2]: binds
Binder: RLRGG [ubiquitin C-terminal pentapeptide RLRGG]
